# B1: Hef from Thermoplasma acidophilum, wild-type (natural protein, Thermoplasma acidophilum DSM 1728, UniProt Q9HI46 1-508, looked up)
# chain: MIIQPREYQLNVFKNSIGQNTLIVMPTGLGKTIIAAMFIEKFYGEKKRSLMVAPTKPLVLQHARTIADSTGISENEIGVFTGEIDAEERELIWVTKKIFVSTPQVVFNDMRSGILDITKFDLIIFDEAHRAVGNYAYVDIAQEYLKYKKKLIIGLTASPGSSREKIDEIMANLGISKVIAKTEMDEDVRKYVKTIDVKLIKIREPDGTKEIVNMIDAVMSKLLEPVKSSNFSIGRSRKDLVATMQKVINSAKEDRSLFQLVRRITAAIRLDYLKEYIETQGIDVALHYLEEMEKSQDPGIRRAISMLSSLDEFATLRTKLMLAADGYTNPKMEKTLSIMESNVHGNARAIVFTHYRITSDLLMDYIQKNGTSLKPVRFIGQADRGSDEGLSQDQQKKIIEDFKNNVYNVLIATSIAEEGLDIPDTDFVIFYEAVPSEIRYIQRKGRTGRSRNGQVYILVFENSRDMAYYYSSIRKVSRMTQTIEDLRQESGSDEKEEKSDVQKTIFDF
# B2: PCNA from Thermoplasma acidophilum (natural protein, Thermoplasma acidophilum DSM 1728, UniProt Q9HJQ0 1-246, looked up)
# chain: MIRLNLSVKNLKEITDLLSTIVSEAKFRVDENGMSVTAVDPAHVAMIRLEVPKEAFVEFHTDGQEEIALDIDRLKSVIRLASSSENVGITKDGEKLKFELGTINKSISLLDPSTIVTPKIPNITSEYYAVLKKSDFERGLRAAEDISDSIRFTLSQDGFKAYSHSESEESEMILPKDLITDMSCNTTIKSSYPLEYLLKFIKAISSTDSLKLSFRDDYPLSVEFYLDQNPGAKIKGLFLLAPRMEQ
# Columns and labels:
# [1] = molecular target: Flag-FANCM PIP-box mutant (L8R/W12S), full length (human) (UniProt Q8IYD8); assay: proximity ligation
# [2] = molecular target: B2; assay: SAXS
# [3] = molecular target: B2; assay: SEC
# Human PCNA, recombinant = Human PCNA, recombinant (human, UniProt P12004 1-261); assay: ITC
# [4] = molecular target: B1; assay: ITC
# SEC = molecular target: the molecule itself; assay: SEC
# Chain of Human PCNA, recombinant (P12004 whole entry): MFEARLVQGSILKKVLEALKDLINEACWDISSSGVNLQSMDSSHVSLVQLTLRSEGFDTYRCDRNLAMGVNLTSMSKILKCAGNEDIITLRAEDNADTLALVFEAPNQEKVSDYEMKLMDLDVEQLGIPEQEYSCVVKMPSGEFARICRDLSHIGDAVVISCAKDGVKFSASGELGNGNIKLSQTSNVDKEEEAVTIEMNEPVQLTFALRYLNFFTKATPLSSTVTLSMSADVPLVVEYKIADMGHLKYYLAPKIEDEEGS
# Chain of Flag-FANCM PIP-box mutant (L8R/W12S), full length (human) (Q8IYD8 whole entry L8R/W12S): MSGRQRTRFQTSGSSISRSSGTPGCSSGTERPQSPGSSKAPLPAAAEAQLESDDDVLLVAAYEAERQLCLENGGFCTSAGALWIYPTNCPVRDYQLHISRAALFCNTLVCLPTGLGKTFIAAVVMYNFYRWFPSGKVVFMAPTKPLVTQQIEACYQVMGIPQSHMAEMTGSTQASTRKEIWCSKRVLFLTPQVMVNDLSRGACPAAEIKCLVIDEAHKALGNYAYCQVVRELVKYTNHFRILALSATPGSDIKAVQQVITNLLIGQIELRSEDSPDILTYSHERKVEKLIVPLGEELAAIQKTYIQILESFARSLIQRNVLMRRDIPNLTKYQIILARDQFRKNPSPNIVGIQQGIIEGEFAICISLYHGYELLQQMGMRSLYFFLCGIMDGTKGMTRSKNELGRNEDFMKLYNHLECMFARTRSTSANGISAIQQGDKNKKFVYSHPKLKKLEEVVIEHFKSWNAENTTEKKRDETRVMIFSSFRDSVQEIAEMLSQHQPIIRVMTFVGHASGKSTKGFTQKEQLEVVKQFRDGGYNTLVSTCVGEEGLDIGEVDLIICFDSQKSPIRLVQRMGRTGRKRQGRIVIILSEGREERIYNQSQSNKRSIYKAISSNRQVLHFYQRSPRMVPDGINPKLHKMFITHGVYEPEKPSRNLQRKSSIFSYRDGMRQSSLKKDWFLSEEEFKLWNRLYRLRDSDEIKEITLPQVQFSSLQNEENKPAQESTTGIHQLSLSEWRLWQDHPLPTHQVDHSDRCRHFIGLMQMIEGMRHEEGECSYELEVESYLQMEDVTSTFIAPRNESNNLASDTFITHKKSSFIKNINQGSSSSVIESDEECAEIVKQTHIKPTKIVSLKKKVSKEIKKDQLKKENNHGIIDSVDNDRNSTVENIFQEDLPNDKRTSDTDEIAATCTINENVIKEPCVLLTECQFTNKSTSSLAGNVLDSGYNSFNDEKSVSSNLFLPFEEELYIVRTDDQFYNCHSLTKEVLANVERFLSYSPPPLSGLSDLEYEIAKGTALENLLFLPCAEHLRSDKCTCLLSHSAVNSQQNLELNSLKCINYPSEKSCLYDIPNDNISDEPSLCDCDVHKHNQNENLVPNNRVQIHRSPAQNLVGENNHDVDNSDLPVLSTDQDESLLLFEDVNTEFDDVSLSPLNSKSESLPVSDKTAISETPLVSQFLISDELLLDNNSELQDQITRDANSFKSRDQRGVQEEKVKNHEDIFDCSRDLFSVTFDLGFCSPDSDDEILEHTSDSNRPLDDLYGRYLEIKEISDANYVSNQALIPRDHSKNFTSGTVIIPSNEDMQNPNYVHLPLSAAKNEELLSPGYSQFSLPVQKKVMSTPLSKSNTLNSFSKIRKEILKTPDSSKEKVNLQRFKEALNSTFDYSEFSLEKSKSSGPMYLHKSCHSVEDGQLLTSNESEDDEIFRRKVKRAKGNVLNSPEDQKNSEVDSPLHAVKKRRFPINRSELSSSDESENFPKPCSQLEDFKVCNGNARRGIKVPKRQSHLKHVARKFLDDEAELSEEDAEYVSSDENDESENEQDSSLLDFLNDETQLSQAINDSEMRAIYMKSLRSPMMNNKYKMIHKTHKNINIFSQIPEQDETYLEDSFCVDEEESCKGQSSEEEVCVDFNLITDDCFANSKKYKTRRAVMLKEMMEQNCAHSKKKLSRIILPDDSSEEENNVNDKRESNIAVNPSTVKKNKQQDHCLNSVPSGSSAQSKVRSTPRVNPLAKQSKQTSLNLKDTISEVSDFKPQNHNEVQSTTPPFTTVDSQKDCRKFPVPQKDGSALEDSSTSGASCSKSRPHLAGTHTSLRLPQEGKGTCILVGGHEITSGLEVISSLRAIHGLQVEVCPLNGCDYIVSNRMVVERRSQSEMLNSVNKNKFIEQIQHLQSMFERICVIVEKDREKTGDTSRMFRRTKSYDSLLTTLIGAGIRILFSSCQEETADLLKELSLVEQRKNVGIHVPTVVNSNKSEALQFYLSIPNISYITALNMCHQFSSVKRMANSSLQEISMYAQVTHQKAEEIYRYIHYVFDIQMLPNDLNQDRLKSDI
molecule,measurement,setting,value
"PCNA, endogenous (from UniProt P12004 1-261) (natural protein)",PLA signal relative to wildtype FANCM (HU-treated cells),[1],50%
B1,stoichiometry N,[2],3 taHef per taPCNA trimer
same,stoichiometry N,[3],3 taHef monomers per taPCNA homotrimer
"MSGRQRTLFQTWGSSIS (peptide, UniProt Q8IYD8 1-17, looked up) [hsFANCM 1-17 wildtype peptide]",Kd,"Human PCNA, recombinant",13 µM
B2,Kd,[4],1 µM
same,stoichiometry N,SEC,3
